Blank lines part the entries; values can stand above or below the molecule they belong to.
B2: Recombinant FLAG-epitope tagged HDAC6 (enzyme, not shown: small tags and cut ends)
chain: MTSTGQDSTTTRQRRSRQNPQSPPQDSSVTSKRNIKKGAVPRSIPNLAEVKKKGKMKKLGQAMEEDLIVGLQGMDLNLEAEALAGTGLVLDEQLNEFHCLWDDSFPEGPERLHAIKEQLIQEGLLDRCVSFQARFAEKEELMLVHSLEYIDLMETTQYMNEGELRVLADTYDSVYLHPNSYSCACLASGSVLRLVDAVLGAEIRNGMAIIRPPGHHAQHSLMDGYCMFNHVAVAARYAQQKHRIRRVLIVDWDVHHGQGTQFTFDQDPSVLYFSIHRYEQGRFWPHLKASNWSTTGFGQGQGYTINVPWNQVGMRDADYIAAFLHVLLPVALEFQPQLVLVAAGFDALQGDPKGEMAATPAGFAQLTHLLMGLAGGKLILSLEGGYNLRALAEGVSASLHTLLGDPCPMLESPGAPCRSAQASVSCALEALEPFWEVLVRSTETVERDNMEEDNVEESEEEGPWEPPVLPILTWPVLQSRTGLVYDQNMMNHCNLWDSHHPEVPQRILRIMCRLEELGLAGRCLTLTPRPATEAELLTCHSAEYVGHLRATEKMKTRELHRESSNFDSIYICPSTFACAQLATGAACRLVEAVLSGEVLNGAAVVRPPGHHAEQDAACGFCFFNSVAVAARHAQTISGHALRILIVDWDVHHGNGTQHMFEDDPSVLYVSLHRYDHGTFFPMGDEGASSQIGRAAGTGFTVNVAWNGPRMGDADYLAAWHRLVLPIAYEFNPELVLVSAGFDAARGDPLGGCQVSPEGYAHLTHLLMGLASGRIILILEGGYNLTSISESMAACTRSLLGDPPPLLTLPRPPLSGALASITETIQVHRRYWRSLRVMKVEDREGPSSSKLVTKKAPQPAKPRLAERMTTREKKVLEAGMGKVTSASFGEESTPGQTNSETAVVALTQDQPSEAATGGATLAQTISEAAIGGAMLGQTTSEEAVGGATPDQTTSEETVGGAILDQTTSEDAVGGATLGQTTSEEAVGGATLAQTISEAAMEGATLDQTTSEEAPGGTELIQTPLASSTDHQTPPTSPVQGTTPQISPSTLIGSLRTLELGSESQGASESQAPGEENLLGEAAGGQDMADSMLMQGSRGLTDQAIFYAVTPLPWCPHLVAVCPIPAAGLDVTQPCGDCGTIQENWVCLSCYQVYCGRYINGHMLQHHGNSGHPLVLSYIDLSAWCYYCQAYVHHQALLDVKNIAHQNKFGEDMPHPH
notes: Full length ORF with C-terminal FLAG tag in pBJ5, expressed in TAg Jurkat cells; also called HDAC6-FLAG; HD6

Key:
HDAC4-EGFP (human) = HDAC4-EGFP (human) (UniProt P56524); assay: cell-based or functional assay
[1] = molecular target: B2; assay: anti-FLAG co-immunoprecipitation from TAg Jurkat cells, Western blot
[2] = molecular target: T1, calyculin A-treated (hyperphosphorylated) HDAC4 (human, UniProt P56524 1-1084, hyperphosphorylated after calyculin A treatment of the cells; sites not determined); assay: immunopurified HDAC4-FLAG from calyculin A-treated cells incubated 1 hour with untreated TAg Jurkat lysate, Western blot
T1 construct: HDAC4-FLAG immunopurified from TAg Jurkat cells treated 1.5 hours with 20 nM calyculin A; also called HDAC4-FLAG from calyculin A-treated cells
Description: These samples were analyzed for 14-3-3 and HDAC3 binding by Western blot analysis.

mSin3A = molecular target: T2, mSin3A (UniProt Q96ST3 1-1273); assay: anti-FLAG co-immunoprecipitation from TAg Jurkat cells, Western blot
T2 construct: Endogenous protein detected by Western blot in immunoprecipitates; also called co-repressor mSin3A
T2 sequence (looked up): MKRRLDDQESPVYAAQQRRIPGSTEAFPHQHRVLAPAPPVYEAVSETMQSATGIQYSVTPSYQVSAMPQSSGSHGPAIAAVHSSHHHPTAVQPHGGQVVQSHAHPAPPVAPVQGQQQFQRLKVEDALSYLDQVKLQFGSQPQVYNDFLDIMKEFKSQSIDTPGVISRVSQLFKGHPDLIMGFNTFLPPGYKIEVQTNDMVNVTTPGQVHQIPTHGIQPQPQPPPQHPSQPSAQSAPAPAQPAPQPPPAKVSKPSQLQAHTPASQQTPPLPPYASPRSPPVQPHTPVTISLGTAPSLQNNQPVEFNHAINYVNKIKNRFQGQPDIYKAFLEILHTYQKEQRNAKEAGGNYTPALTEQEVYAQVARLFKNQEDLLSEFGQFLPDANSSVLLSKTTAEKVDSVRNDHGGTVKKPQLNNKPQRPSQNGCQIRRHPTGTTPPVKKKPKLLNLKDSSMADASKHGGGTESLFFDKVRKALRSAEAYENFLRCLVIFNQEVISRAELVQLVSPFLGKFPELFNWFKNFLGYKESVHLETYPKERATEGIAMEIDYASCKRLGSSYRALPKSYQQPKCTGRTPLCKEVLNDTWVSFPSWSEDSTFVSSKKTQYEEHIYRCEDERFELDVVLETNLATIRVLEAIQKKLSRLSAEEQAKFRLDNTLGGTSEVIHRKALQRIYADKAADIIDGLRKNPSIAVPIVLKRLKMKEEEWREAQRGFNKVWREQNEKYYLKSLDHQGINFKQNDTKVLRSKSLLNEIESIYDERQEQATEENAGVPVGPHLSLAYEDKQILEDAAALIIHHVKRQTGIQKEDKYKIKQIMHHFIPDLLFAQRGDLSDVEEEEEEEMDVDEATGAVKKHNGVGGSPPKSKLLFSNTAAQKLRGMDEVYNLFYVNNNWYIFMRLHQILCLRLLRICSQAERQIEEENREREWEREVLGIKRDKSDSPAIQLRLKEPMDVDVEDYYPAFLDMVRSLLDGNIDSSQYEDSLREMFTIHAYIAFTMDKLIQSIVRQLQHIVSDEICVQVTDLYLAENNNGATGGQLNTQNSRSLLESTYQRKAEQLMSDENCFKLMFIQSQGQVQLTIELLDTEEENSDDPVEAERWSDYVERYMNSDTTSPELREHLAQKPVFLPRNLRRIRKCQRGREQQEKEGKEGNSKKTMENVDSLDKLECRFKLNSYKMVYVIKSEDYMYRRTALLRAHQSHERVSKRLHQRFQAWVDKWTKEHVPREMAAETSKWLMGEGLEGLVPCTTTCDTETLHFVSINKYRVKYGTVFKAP

CHD4 = molecular target: T3, CHD4 (UniProt Q14839 1-1912, limits assumed); assay: as above
T3 construct: Endogenous protein detected by Western blot in immunoprecipitates; also called CHD chromodomain protein
T3 sequence (Q14839 whole entry): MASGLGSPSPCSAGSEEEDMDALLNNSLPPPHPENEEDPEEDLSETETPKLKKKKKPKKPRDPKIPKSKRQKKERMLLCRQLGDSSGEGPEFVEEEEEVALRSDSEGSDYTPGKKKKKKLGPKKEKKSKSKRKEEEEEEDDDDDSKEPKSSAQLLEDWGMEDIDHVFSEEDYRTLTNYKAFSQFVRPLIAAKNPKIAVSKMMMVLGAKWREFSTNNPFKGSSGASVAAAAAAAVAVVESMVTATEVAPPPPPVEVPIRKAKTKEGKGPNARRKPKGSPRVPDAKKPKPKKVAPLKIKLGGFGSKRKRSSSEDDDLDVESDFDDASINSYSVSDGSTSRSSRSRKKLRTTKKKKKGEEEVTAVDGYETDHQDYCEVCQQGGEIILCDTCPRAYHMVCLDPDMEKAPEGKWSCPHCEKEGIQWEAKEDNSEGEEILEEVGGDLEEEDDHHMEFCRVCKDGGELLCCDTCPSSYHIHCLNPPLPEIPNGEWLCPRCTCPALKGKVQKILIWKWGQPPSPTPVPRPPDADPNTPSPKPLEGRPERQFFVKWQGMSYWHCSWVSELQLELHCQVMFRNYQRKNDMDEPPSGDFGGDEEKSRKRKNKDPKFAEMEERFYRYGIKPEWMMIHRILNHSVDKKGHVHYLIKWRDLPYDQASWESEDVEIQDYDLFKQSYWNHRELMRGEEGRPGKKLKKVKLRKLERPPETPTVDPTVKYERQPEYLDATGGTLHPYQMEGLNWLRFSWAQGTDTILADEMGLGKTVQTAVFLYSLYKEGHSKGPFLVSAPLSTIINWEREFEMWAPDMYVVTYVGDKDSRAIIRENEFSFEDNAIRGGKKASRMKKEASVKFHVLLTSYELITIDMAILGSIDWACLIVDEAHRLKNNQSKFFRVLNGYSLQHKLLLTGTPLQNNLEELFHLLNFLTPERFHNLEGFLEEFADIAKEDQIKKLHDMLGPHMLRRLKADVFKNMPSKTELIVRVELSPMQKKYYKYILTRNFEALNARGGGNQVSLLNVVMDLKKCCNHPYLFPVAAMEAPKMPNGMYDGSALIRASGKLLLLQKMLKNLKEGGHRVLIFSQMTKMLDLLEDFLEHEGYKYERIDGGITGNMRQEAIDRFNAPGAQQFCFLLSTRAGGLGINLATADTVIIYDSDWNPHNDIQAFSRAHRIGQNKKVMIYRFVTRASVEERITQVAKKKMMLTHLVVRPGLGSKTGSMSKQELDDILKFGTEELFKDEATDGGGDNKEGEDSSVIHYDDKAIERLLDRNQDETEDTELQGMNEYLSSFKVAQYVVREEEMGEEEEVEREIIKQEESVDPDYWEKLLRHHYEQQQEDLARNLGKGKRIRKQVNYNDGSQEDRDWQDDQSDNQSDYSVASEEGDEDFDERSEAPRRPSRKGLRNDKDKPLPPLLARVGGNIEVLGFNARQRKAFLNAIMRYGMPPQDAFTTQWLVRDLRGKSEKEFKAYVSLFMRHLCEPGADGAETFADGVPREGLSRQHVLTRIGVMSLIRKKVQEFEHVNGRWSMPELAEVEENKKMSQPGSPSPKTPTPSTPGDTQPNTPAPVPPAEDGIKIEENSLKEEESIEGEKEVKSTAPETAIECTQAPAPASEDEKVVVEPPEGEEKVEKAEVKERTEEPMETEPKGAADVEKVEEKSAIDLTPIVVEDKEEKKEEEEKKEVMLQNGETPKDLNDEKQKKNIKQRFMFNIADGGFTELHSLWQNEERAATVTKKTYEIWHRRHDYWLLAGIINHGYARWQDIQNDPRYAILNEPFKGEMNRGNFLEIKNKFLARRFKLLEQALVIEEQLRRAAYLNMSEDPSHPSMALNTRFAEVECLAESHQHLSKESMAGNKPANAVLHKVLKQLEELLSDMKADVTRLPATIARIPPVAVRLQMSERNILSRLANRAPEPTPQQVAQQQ

14-3-3 β, P31946, sequence (P31946 whole entry, looked up): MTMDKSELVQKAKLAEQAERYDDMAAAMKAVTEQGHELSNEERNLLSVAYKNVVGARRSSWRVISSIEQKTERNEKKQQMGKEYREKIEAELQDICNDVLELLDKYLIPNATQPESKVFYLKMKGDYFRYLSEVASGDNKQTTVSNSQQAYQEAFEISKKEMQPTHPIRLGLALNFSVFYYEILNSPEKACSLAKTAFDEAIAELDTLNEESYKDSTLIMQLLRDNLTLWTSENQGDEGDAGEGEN
14-3-3 ε, P62258, sequence (P62258 whole entry, looked up): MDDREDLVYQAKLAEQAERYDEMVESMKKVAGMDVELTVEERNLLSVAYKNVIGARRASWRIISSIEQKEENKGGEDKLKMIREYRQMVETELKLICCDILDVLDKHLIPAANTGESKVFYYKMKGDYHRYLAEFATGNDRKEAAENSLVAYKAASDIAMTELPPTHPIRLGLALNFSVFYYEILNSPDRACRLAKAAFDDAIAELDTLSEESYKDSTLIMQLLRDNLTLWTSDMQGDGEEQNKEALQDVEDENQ

Molecule: B2
- binding result (mSin3A): no binding
- binding result (CHD4): no binding

B3: HDAC4 S246/466/632A triple mutant (protein)
chain: MSSQSHPDGLSGRDQPVELLNPARVNHMPSTVDVATALPLQVAPSAVPMDLRLDHQFSLPVAEPALREQQLQQELLALKQKQQIQRQILIAEFQRQHEQLSRQHEAQLHEHIKQQQEMLAMKHQQELLEHQRKLERHRQEQELEKQHREQKLQQLKNKEKGKESAVASTEVKMKLQEFVLNKKKALAHRNLNHCISSDPRYWYGKTQHSSLDQSSPPQSGVSTSYNHPVLGMYDAKDDFPLRKTAAEPNLKLRSRLKQKVAERRSSPLLRRKDGPVVTALKKRPLDVTDSACSSAPGSGPSSPNNSSGSVSAENGIAPAVPSIPAETSLAHRLVAREGSAAPLPLYTSPSLPNITLGLPATGPSAGTAGQQDTERLTLPALQQRLSLFPGTHLTPYLSTSPLERDGGAAHSPLLQHMVLLEQPPAQAPLVTGLGALPLHAQSLVGADRVSPSIHKLRQHRPLGRTQAAPLPQNAQALQHLVIQQQHQQFLEKHKQQFQQQQLQMNKIIPKPSEPARQPESHPEETEEELREHQALLDEPYLDRLPGQKEAHAQAGVQVKQEPIESDEEEAEPPREVEPGQRQPSEQELLFRQQALLLEQQRIHQLRNYQASMEAAGIPVSFGGHRPLSRAQASPASATFPVSVQEPPTKPRFTTGLVYDTLMLKHQCTCGSSSSHPEHAGRIQSIWSRLQETGLRGKCECIRGRKATLEELQTVHSEAHTLLYGTNPLNRQKLDSKKLLGSLASVFVRLPCGGVGVDSDTIWNEVHSAGAARLAVGCVVELVFKVATGELKNGFAVVRPPGHHAEESTPMGFCYFNSVAVAAKLLQQRLSVSKILIVDWDVHHGNGTQQAFYSDPSVLYMSLHRYDDGNFFPGSGAPDEVGTGPGVGFNVNMAFTGGLDPPMGDAEYLAAFRTVVMPIASEFAPDVVLVSSGFDAVEGHPTPLGGYNLSARCFGYLTKQLMGLAGGRIVLALEGGHDLTAICDASEACVSALLGNELDPLPEKVLQQRPNANAVRSMEKVMEIHSKYWRCLQRTTSTAGRSLIEAQTCENEEAETVTAMASLSVGVKPAEKRPDEEPMEEEPPL
- localization to the cytoplasm (14-3-3 β, P31946): localization of the triple mutant to the cytoplasm is dramatically decreased compared to the wild-type and single mutants
- localization to the cytoplasm (14-3-3 ε, P62258): localization of the triple mutant to the cytoplasm is dramatically decreased compared to the wild-type and single mutants

Continued, values first:

- cytoplasmic localization of HDAC4 (percent of U2OS cells), HDAC4-EGFP with simultaneous overexpression of 14-3-3 (% of the cells) (HDAC4-EGFP (human)): 97
- cytoplasmic localization of HDAC4 (percent of U2OS cells), control: HDAC4-EGFP alone without overexpressed 14-3-3 (% of the cells) (HDAC4-EGFP (human)): 67
Molecule: myc-tagged 14-3-3 β (from UniProt P31946 1-246)

- binding result [1]: no binding
- binding result [2]: binds
B1: HDAC3 (enzyme, human, UniProt O15379 1-428, looked up)
chain: MAKTVAYFYDPDVGNFHYGAGHPMKPHRLALTHSLVLHYGLYKKMIVFKPYQASQHDMCRFHSEDYIDFLQRVSPTNMQGFTKSLNAFNVGDDCPVFPGLFEFCSRYTGASLQGATQLNNKICDIAINWAGGLHHAKKFEASGFCYVNDIVIGILELLKYHPRVLYIDIDIHHGDGVQEAFYLTDRVMTVSFHKYGNYFFPGTGDMYEVGAESGRYYCLNVPLRDGIDDQSYKHLFQPVINQVVDFYQPTCIVLQCGADSLGCDRLGCFNLSIRGHGECVEYVKSFNIPLLVLGGGGYTVRNVARCWTYETSLLVEEAISEELPYSEYFEYFAPDFTLHPDVSTRIENQNSRQYLDQIRQTIFENLKMLNHAPSVQIHDVPADLLTYDRTDEADAEERGPEENYSRPEAPNEFYDGDHDNDKESDVEI
notes: Endogenous protein co-immunoprecipitated from cell lysate; also used here for HDAC3 of staurosporine-treated cells; also called HDAC3 from untreated cells
